Binder | ratio of the rates of Lys- to Glu-plasminogen activation in the presence of fibrin stimulator (Lys/Glu) (Lys/Glu (ratio of rates), single chain) (Lysine (Lys)-Plasminogen) | plasminogenolytic activity (PAU/mg) (PAU/mg (single chain)) (plasminogen)
mt-PA6-E (enzyme, diglycosylated: alternate glycosylation consensus sequence at the amino acids surrounding position 48 (equivalent to amino acid 219 of t-PA) in Kringle 2 (claim 2: monoglycosylated at amino acid residue number 47), and the glycosylation consensus sequence within the Serine Protease domain) SYQGNSDCYFGQGSAYRGTHSLTESGASCLPWNSMILIGKVYTAQNGSAQALGLGKHNYCRNPDGDAKPWCHVLKNRRLTWEYCDVPSCSTCGLRQYSQPQFRIKGGLFADIASHPWQAAIFAKHRRSPGERFLCGGILISSCWILSAAHCFQERFPPHHLTVILGRTYRVVPGEEEQKFEVEKYIVHKEFDDDTYDNDIALLQLKSDSSRCAQESSVVRTVCLPPADLQLPDWTECELSGYGKHEALSPFYSERLKEAHVRLYPSSRCTSQHLLNRTVTDNMLCAGDTRSGGPQANLHDACQGDSGGPLVCLNDGRMTLVGIISWGLGCGQKDVPGVYTKVTNYLDWIRDNMRP | 2 | 59
mt-PA6-D (enzyme, diglycosylated: alternate glycosylation consensus sequence at the amino acids surrounding position 33 (equivalent to amino acid 205 of t-PA) in Kringle 2, and the glycosylation consensus sequence within the Serine Protease domain) SYQGNSDCYFGQGSAYRGTHSLTESGASCLPWNGSMILIGKVYTAQNPSAQALGLGKHNYCRNPDGDAKPWCHVLKNRRLTWEYCDVPSCSTCGLRQYSQPQFRIKGGLFADIASHPWQAAIFAKHRRSPGERFLCGGILISSCWILSAAHCFQERFPPHHLTVILGRTYRVVPGEEEQKFEVEKYIVHKEFDDDTYDNDIALLQLKSDSSRCAQESSVVRTVCLPPADLQLPDWTECELSGYGKHEALSPFYSERLKEAHVRLYPSSRCTSQHLLNRTVTDNMLCAGDTRSGGPQANLHDACQGDSGGPLVCLNDGRMTLVGIISWGLGCGQKDVPGVYTKVTNYLDWIRDNMRP | 3.3 | 189

Second part, the binder after the results:

ratio of the rates of Lys- to Glu-plasminogen activation in the presence of fibrin stimulator (Lys/Glu) (Lys/Glu (ratio of rates), single chain) (Lysine (Lys)-Plasminogen) | plasminogenolytic activity (PAU/mg) (PAU/mg (single chain)) (plasminogen) | Binder
2 | 50 | mt-PA9 (enzyme, diglycosylated: obligatory glycosylation site located in the first exon of Kringle 1, and the site in the Serine Protease domain) SYQDTRATCYEDQGISYRGTWSTAESGAECTNWNSSALAQKPYSGRRPDAIRLGLGNHNYCRNPDGDAKPWCHVLKNRRLTWEYCDVPSCSTCGLRQYSQPQFRIKGGLFADIASHPWQAAIFAKHRRSPGERFLCGGILISSCWILSAAHCFQERFPPHHLTVILGRTYRVVPGEEEQKFEVEKYIVHKEFDDDTYDNDIALLQLKSDSSRCAQESSVVRTVCLPPADLQLPDWTECELSGYGKHEALSPFYSERLKEAHVRLYPSSRCTSQHLLNRTVTDNMLCAGDTRSGGPQANLHDACQGDSGGPLVCLNDGRMTLVGIISWGLGCGQKDVPGVYTKVTNYLDWIRDNMRP
1 | 87 | Primary mt-PA6 (mt-PA6-P) (enzyme, glycosylated at amino acid 276 but not at amino acid 12) SYQGNSDCYFGNGSAYRGTHSLTESGASCLPWNSMILIGKVYTAQNPSAQALGLGKHNYCRNPDGDAKPWCHVLKNRRLTWEYCDVPSCSTCGLRQYSQPQFRIKGGLFADIASHPWQAAIFAKHRRSPGERFLCGGILISSCWILSAAHCFQERFPPHHLTVILGRTYRVVPGEEEQKFEVEKYIVHKEFDDDTYDNDIALLQLKSDSSRCAQESSVVRTVCLPPADLQLPDWTECELSGYGKHEALSPFYSERLKEAHVRLYPSSRCTSQHLLNRTVTDNMLCAGDTRSGGPQANLHDACQGDSGGPLVCLNDGRMTLVGIISWGLGCGQKDVPGVYTKVTNYLDWIRDNMRP
1.4 | 56 | Variant mt-PA6 (mt-PA6-V) (enzyme, glycosylated at amino acids 276 and 12) SYQGNSDCYFGNGSAYRGTHSLTESGASCLPWNSMILIGKVYTAQNPSAQALGLGKHNYCRNPDGDAKPWCHVLKNRRLTWEYCDVPSCSTCGLRQYSQPQFRIKGGLFADIASHPWQAAIFAKHRRSPGERFLCGGILISSCWILSAAHCFQERFPPHHLTVILGRTYRVVPGEEEQKFEVEKYIVHKEFDDDTYDNDIALLQLKSDSSRCAQESSVVRTVCLPPADLQLPDWTECELSGYGKHEALSPFYSERLKEAHVRLYPSSRCTSQHLLNRTVTDNMLCAGDTRSGGPQANLHDACQGDSGGPLVCLNDGRMTLVGIISWGLGCGQKDVPGVYTKVTNYLDWIRDNMRP

— patent US5595736
